Results on 1 molecule are retold here after patent US6312887, “Method of using a crystal of the N-terminal domain of a signal transducer and activator of transcription” (The Rockefeller University).

The target of this data set is STAT-1alpha wild type (Tyr-phosphorylated) (Homo sapiens, UniProt P42224 P42224:2-750). Kind of data set: EMSA. As to conditions: tags: in vitro Tyr-phosphorylated with EGF-receptor kinase; chain copies: 4 on tandem site (two dimers), stated; 2 on single site; label: radiolabel. The protocol: Both protein preparations (Tyr-phosphorylated wild type STAT-1α and W37A mutant) were titrated in gel shift experiments with an oligonucleotide containing a single M67 site (5'-GCCGAT TTCCCGTAAATCAT-3', SEQ ID NO:5) [Wagner et al., *EMBO J.* 9:4477 (1990)] to assure similar loading of active protein. A 12.5 μl reaction volume contained DNA binding buffer (20 mM Hepes/HCl, 4% Ficoll, 40 mM KCl, 10 mM MgCl_2, 10 mM CaCl_2, 1 mM DTT) radiolabelled DNA at a final concentration of 1×10^-10 M unless stated otherwise, 50 ng dIdC, 0.2 mg/ml BSA (Boebringer Mannheim), and the indicated amount of purified phosphorylated STAT protein. The reaction volume was mixed and then incubated at room temperature. The time necessary to reach equilibrium was assessed by EMSA [(Stone et al., in Jost, J.P. & Saluz, H.P. (eds) *A Laboratory Guide to In Vitro Studies of Protein-DNA Interactions* BioMethods, vol.5:163–195 (1991)]. For all DNA fragments tested, equilibrium turned out to be fully established at the earliest timepoint that can be determined by this technique (30 sec). Therefore incubation periods of 5–15 minutes were chosen. Reaction products were loaded onto a 4% polyacrylamide gel (1.5 mm thick) containing 0.25×Tris-borate-EDTA which had been pre-run at 20V/cm for 2 hours at 4° C. Electrophoresis was continued for 60 minutes at 4° C. […]
Chain of STAT-1alpha wild type (Tyr-phosphorylated) (P42224 2-750, one chain of several): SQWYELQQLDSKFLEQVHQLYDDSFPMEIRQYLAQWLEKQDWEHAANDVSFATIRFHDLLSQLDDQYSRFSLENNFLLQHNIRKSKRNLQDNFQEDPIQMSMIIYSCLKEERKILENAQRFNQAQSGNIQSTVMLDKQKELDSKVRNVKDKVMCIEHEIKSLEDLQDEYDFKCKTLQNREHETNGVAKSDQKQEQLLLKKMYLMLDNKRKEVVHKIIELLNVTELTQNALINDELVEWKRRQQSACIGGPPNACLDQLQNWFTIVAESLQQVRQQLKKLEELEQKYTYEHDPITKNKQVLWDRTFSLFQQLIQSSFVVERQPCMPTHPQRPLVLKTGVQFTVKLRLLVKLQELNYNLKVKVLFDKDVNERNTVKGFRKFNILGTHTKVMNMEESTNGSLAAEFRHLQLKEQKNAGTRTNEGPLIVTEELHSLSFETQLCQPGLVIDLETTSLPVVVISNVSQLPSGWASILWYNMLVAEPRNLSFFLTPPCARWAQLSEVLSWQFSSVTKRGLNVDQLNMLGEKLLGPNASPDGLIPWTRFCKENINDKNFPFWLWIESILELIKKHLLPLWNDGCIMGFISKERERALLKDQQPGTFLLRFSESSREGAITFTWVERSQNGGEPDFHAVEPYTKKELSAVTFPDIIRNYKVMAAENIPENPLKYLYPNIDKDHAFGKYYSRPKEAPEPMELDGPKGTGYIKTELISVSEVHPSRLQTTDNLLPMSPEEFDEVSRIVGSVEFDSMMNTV

B1: tandem c-fos STAT recognition element, 10 bp spacing (dsDNA)
DNA 1: GCCAGTCAGTTCCCGTCAATGCATCAGGTTCCCGTCAATGCAT
DNA 2: ATGCATTGACGGGAACCTGATGCATTGACGGGAACTGACTGGC
As to B1, the binding result is reported as “binds”.
